The nature of assay [1]: Binding of endogenous heme on expression in E. coli (absorption spectra). It is filed as cell-based. Particulars: expressed in E. coli, Soret and Q bands at 410 and 550 nm. As to the method:
FIGS. 18A-18B. enFold proteins are capable of noncovalently binding endogenous ligands in the cell. […] Inset: E. coli cultures of after induction). FIG. 18B: Denovo proteins from binary sequence patterning. Previous studies have only been able to incorporate heme exogenously, i.e. after expression and purification, heme is added to the purified apo-protein. See Patel et al, Protein Science, 18:1388-1400.
The computational method described here is capable of producing proteins that noncovalently bind ligands in vivo. We have observed loading of endogenous heme in a PS1 variant, where 7 terminal residues near the binding ligand site were deleted to allow incorporation of a heme ligand with its bulky, charged proprionate functional groups (FIG. 16). […] These apo-proteins remain competent to bind an endogenous ligand, for example heme (FIG. 17 and FIGS. 18A-18B). These proteins are the first de novo designed proteins to our knowledge that noncovalently bind heme in vivo.

Assay [2] in a line: Porphyrin binding to apo-protein, electronic absorption spectra ((CF3)4PZn loading). As to the method: FIGS. 3A-3D. Biophysical characterization of apo- and holo-PS1. FIG. 3A: Electronic absorption and emission spectra of (CF3)4PZn/PS1 holo-protein and (CF3)4PZn in toluene solvent. […] FIG. 3B: Determination of KD by apo-PS1 titration into a buffer solution (100 mM NaCl, 50 mM NaPi, pH 7.5) of (CF3)4PZn with 1% w/v octyl-b-D-glucopyranoside. […] FIG. 3C: Circular dichroism (CD) spectra of apo- and holo-PS1 in 50 mM NaPi, 100 mM NaCl, pH 7.5 as a function of temperature. The transitions appear reversible based on the fact that the spectra are identical after cooling to room temperature. Units are in molar residue ellipticity. […] FIG. 3D: Pump-probe transient absorption spectra of (CF3)4PZn bound in the interior of holo-PS1 at 21° C. and 100° C. […] Inset exemplifies identical transient dynamics (primarily intersystem crossing from S1 to T1) at ΔAbs.=482 nm (scaled). Experimental conditions: solvent=50 mM NaPi, 100 mM NaCl, pH 7.5; excitation wavelength=600±5 nm; magic-angle polarization between pump and probe pulses; pump-probe cross-correlation of ˜250 fs.
FIG. 10. Absorption spectra of (CF3)4PZn/PS1 and (CF3)4PZn/PS2 complexes. […] Experimental conditions: buffer=100 mM NaCl, 50 mM NaPi, pH 7.5.
A 2-fold excess of the cofactor (CF3)4PZn was added from a 4 mM DMSO stock solution to a 50 mM NaPi, 100 mM NaCl, pH 7.5 buffer with apo-protein (Note that final DMSO concentrations were kept <1%.). Buffer solution of apo-PS1 protein was heated for 5 minutes at 50° C., (CF3)4PZn was then added from the DMSO stock solution, the resultant mixture was vortexed for 5 seconds, and placed back in the heat block at 50° C. for 15 minutes, with vortexing every 3 minutes. The protein/cofactor solution was then spun at 14000×g in a Amicon Ultra-0.5 mL centrifuge filter for 10 min, three times, replacing the buffer to 0.5 mL after each 10 min spin. Finally, the protein solution was spun for 4 min at 12000×g in an Amicon ultrafree-MC GV filter (UFC30GV0S). The holo-PS1 sample was then used for spectroscopic experiments immediately afterward, and diluted to an appropriate concentration if necessary. Binding of (CF3)4PFe was carried out in the same fashion, with the exception that the porphyrin was first dissolved in a stock of DMSO/CHCl3.
Electronic absorption spectra were collected using a Shimadzu UV-1700 UV-Vis spectrophotometer or Cary 5000 spectrophotometer. Steady-state emission spectra were obtained on FLS920P spectrophotometer (Edinburgh Instruments Ltd. Livingston, UK) in 1 cm quartz optical cells. The steady-state emission spectra were corrected using the correction factor generated by the manufacturer.

B1: PS1 D103-109: PS1 variant with 7 terminal residues near the ligand binding site deleted, SEQ ID NO:8 (protein)
chain: EFEKLRQTGDELVQAFQRLREIFDKGDDDSLEQVLEEIEELIQKHRQLFDNRQEAADTEAAKQGDQWVQLFQRFREAIDKGDKDSLEQLLEELEQALQKIR
As to B1, the entries for the “binding / loading of endogenous heme” value in assay [1] and in assay [1] (listed as PS1 deletion variant) were “high loading of endogenous heme” and “binds endogenous heme”, respectively.

B2: PS2: second designed porphyrin-binding protein with redesigned core (Ser94, Trp68), SEQ ID NO:7 (protein)
chain: SEFEKLRQTGDEIIQLLQRLREAIDKGDDDSLEQILEELEEAFQKHRQLFENRQEAADTEFAKQGDQWLQLFQRIREAIDKGDKDSLEQLFEESEQGIQKIRELAEKKN
Take B2: the porphyrin loading in assay [2] ((CF3)4PZn, based on absorbance at 280 nm and 423 nm, 100 mM NaCl, 50 mM NaPi, pH 7.5) is 100%. Also, the “binding of (CF3)4PZn” value in assay [2] (narrow electronic absorption bands of the porphyrin) is “bound (CF3)4PZn in a homogenous environment”.

The values above are taken from patent US20200234789A1, “DESIGNED PROTEINS FOR LIGAND BINDING” (THE REGENTS OF THE UNIVERSITY OF CALIFORNIA, priority 2017, published 2020).
